Test results from PMC10447535.

Key:
[1] = cycloheximide chase immunoblot, MKN28; details: glycan lost; control: KIAA1324 WT
[2] = immunofluorescence, cell surface level, MKN28; details: glycan lost; control: KIAA1324 WT

B1: KIAA1324 (ELAPOR1, inceptor): 3NQ (protein)
parent chain: MAEPGHSHHLSARVRGRTERRIPRLWRLLLWAGTAFQVTQGTGPELHACKESEYHYEYTACDSTGSRWRVAVPHTPGLCTSLPDPIKGTECSFSCNAGEFLDMKDQSCKPCAEGRYSLGTGIRFDEWDELPHGFASLSANMELDDSAAESTGNCTSSKWVPRGDYIASNTDECTATLMYAVNLKQSGTVNFEYYYPDSSIIFEFFVQNDQCQPNADDSRWMKTTEKGWEFHSVELNRGNNVLYWRTTAFSVWTKVPKPVLVRNIAITGVAYTSECFPCKPGTYADKQGSSFCKLCPANSYSNKGETSCHQCDPDKYSEKGSSSCNVRPACTDKDYFYTHTACDANGETQLMYKWAKPKICSEDLEGAVKLPASGVKTHCPPCNPGFFKTNNSTCQPCPYGSYSNGSDCTRCPAGTEPAVGFEYKWWNTLPTNMETTVLSGINFEYKGMTGWEVAGDHIYTAAGASDNDFMILTLVVPGFRPPQSVMADTENKEVARITFVFETLCSVNCELYFMVGVNSRTNTPVETWKGSKGKQSYTYIIEENTTTSFTWAFQRTTFHEASRKYTNDVAKIYSINVTNVMNGVASYCRPCALEASDVGSSCTSCPAGYYIDRDSGTCHSCPTNTILKAHQPYGVQACVPCGPGTKNNKIHSLCYNDCTFSRNTPTRTFNYNFSALANTVTLAGGPSFTSKGLKYFHHFTLSLCGNQGRKMSVCTDNVTDLRIPEGESGFSKSITAYVCQAVIIPPEVTGYKAGVSSQPVSLADRLIGVTTDMTLDGITSPAELFHLESLGIPDVIFFYRSNDVTQSCSSGRSTTIRVRCSPQKTVPGSLLLPGTCSDGTCDGCNFHFLWESAAACPLCSVADYHAIVSSCVAGIQKTTYVWREPKLCSGGISLPEQRVTICKTIDFWLKVGISAGTCTAILLTVLTCYFWKKNQKLEYKYSKLVMNATLKDCDLPAADSCAIMEGEDVEDDLIFTSKKSLFGKIKSFTSKRTPDGFDSVPLKTSSGGLDMDL
In the case of B1, the “degradation_or_half_life, other: protein level remaining at 2 h” value [1] is reported as “decreases” and the localisation_or_trafficking [2] is reported as “decreases”.
